Measurements: patent US20170008955A1 (CNJ, published 2017)

Key:
[1] = molecular target: T1, cSNK:BSA conjugate (bovine, head-to-tail cyclized; conjugated to BSA carrier); test: BLI (Octet), KD2
T1 construct: also called BSA-cSNK

[2] = molecular target: T1, cSNK:BSA conjugate; test: BLI (Octet), KD1

T1 sequence (P02769 25-607 limits assumed): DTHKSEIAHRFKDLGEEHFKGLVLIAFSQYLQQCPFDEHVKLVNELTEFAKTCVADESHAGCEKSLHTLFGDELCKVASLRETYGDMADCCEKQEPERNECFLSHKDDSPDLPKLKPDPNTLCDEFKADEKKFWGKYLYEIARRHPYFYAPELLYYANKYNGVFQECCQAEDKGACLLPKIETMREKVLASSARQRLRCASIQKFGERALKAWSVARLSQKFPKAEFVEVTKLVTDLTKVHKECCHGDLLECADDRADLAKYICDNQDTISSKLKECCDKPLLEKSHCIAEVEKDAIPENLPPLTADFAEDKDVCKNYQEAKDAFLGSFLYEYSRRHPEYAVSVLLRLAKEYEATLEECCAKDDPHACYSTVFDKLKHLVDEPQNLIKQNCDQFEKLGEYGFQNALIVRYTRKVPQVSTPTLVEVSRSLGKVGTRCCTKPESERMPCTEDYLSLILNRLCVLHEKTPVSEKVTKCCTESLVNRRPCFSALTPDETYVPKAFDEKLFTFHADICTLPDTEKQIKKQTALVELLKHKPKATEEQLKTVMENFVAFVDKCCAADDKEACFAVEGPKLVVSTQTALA

Binder	Kd [1]	Kd [2]
5E3HCDR1-S184D (antibody, V domains shown, hu5E3 IgG1 vector mutant; also called 5E3-S184D-AFF) VH: QVQLQQSGPEVKKPGASVKISCKASGYIFTDYYIQWVIHAPGQGLEWIGWIYPGNVNTKYNEKFKGKATLTADKSSSTAYMELSSLTSEDTAVYFCARMDYEAHYWGQGTTVTVSS VL: DIQMTQSPSSLSASVGDRVTITCRASQEISGYLTWLQQKPEGAIKRLIYAASTLDSGVPKRFSGSRSGSDYSLTISSLQPEDFATYNCLQYANYPRTFGGGTKLEIK	3.41 nM	0.214 nM
5E3HCDR2-V209Y (antibody, IgG1, V domains shown, hu5E3 IgG1 vector mutant) VH: QVQLQQSGPEVKKPGASVKISCKASGYIFTSYYIQWVIHAPGQGLEWIGWIYPGNYNTKYNEKFKGKATLTADKSSSTAYMELSSLTSEDTAVYFCARMDYEAHYWGQGTTVTVSS VL: DIQMTQSPSSLSASVGDRVTITCRASQEISGYLTWLQQKPEGAIKRLIYAASTLDSGVPKRFSGSRSGSDYSLTISSLQPEDFATYNCLQYANYPRTFGGGTKLEIK	2.4 nM	0.0107 nM
5E3KCDR3-L89I + 5E3HCDR3-E209Q (antibody, IgG1, V domains shown, double combination in hu5E3 IgG1) VH: QVQLQQSGPEVKKPGASVKISCKASGYIFTSYYIQWVIHAPGQGLEWIGWIYPGNVNTKYNEKFKGKATLTADKSSSTAYMELSSLTSEDTAVYFCARMDYQAHYWGQGTTVTVSS VL: DIQMTQSPSSLSASVGDRVTITCRASQEISGYLTWLQQKPEGAIKRLIYAASTLDSGVPKRFSGSRSGSDYSLTISSLQPEDFATYNCIQYANYPRTFGGGTKLEIK		19.8 nM
5E3KCDR3-N93Q (antibody, IgG1, V domains shown, hu5E3 IgG1 vector mutant) VH: QVQLQQSGPEVKKPGASVKISCKASGYIFTSYYIQWVIHAPGQGLEWIGWIYPGNVNTKYNEKFKGKATLTADKSSSTAYMELSSLTSEDTAVYFCARMDYEAHYWGQGTTVTVSS VL: DIQMTQSPSSLSASVGDRVTITCRASQEISGYLTWLQQKPEGAIKRLIYAASTLDSGVPKRFSGSRSGSDYSLTISSLQPEDFATYNCLQYAQYPRTFGGGTKLEIK	0.76 nM	9.12 nM
5E3HCDR3-E209D (antibody, IgG1, V domains shown, hu5E3 IgG1 vector mutant; same change as 5E3HCDR3-E255D) VH: QVQLQQSGPEVKKPGASVKISCKASGYIFTSYYIQWVIHAPGQGLEWIGWIYPGNVNTKYNEKFKGKATLTADKSSSTAYMELSSLTSEDTAVYFCARMDYDAHYWGQGTTVTVSS VL: DIQMTQSPSSLSASVGDRVTITCRASQEISGYLTWLQQKPEGAIKRLIYAASTLDSGVPKRFSGSRSGSDYSLTISSLQPEDFATYNCLQYANYPRTFGGGTKLEIK	9.13 nM	3.21 nM
5E3HCDR3-A210G (antibody, IgG1, V domains shown, hu5E3 IgG1 vector mutant) VH: QVQLQQSGPEVKKPGASVKISCKASGYIFTSYYIQWVIHAPGQGLEWIGWIYPGNVNTKYNEKFKGKATLTADKSSSTAYMELSSLTSEDTAVYFCARMDYEGHYWGQGTTVTVSS VL: DIQMTQSPSSLSASVGDRVTITCRASQEISGYLTWLQQKPEGAIKRLIYAASTLDSGVPKRFSGSRSGSDYSLTISSLQPEDFATYNCLQYANYPRTFGGGTKLEIK	9.97 nM	1.73 nM
5E3KCDR2-S80D (antibody, IgG1, V domains shown, hu5E3 IgG1 vector mutant; also called 5E3-S80D-AFF) VH: QVQLQQSGPEVKKPGASVKISCKASGYIFTSYYIQWVIHAPGQGLEWIGWIYPGNVNTKYNEKFKGKATLTADKSSSTAYMELSSLTSEDTAVYFCARMDYEAHYWGQGTTVTVSS VL: DIQMTQSPSSLSASVGDRVTITCRASQEISGYLTWLQQKPEGAIKRLIYAASTLDDGVPKRFSGSRSGSDYSLTISSLQPEDFATYNCLQYANYPRTFGGGTKLEIK	3.95 nM	0.0269 nM
5E3KCDR3-A116Y (antibody, IgG1, V domains shown, hu5E3 IgG1 vector mutant) VH: QVQLQQSGPEVKKPGASVKISCKASGYIFTSYYIQWVIHAPGQGLEWIGWIYPGNVNTKYNEKFKGKATLTADKSSSTAYMELSSLTSEDTAVYFCARMDYEAHYWGQGTTVTVSS VL: DIQMTQSPSSLSASVGDRVTITCRASQEISGYLTWLQQKPEGAIKRLIYAASTLDSGVPKRFSGSRSGSDYSLTISSLQPEDFATYNCLQYYNYPRTFGGGTKLEIK	1.93 nM	< 0.001 nM
5E3KCDR3-L89I + 5E3HCDR3-Y212F (antibody, IgG1, V domains shown, double combination in hu5E3 IgG1) VH: QVQLQQSGPEVKKPGASVKISCKASGYIFTSYYIQWVIHAPGQGLEWIGWIYPGNVNTKYNEKFKGKATLTADKSSSTAYMELSSLTSEDTAVYFCARMDYEAHFWGQGTTVTVSS VL: DIQMTQSPSSLSASVGDRVTITCRASQEISGYLTWLQQKPEGAIKRLIYAASTLDSGVPKRFSGSRSGSDYSLTISSLQPEDFATYNCIQYANYPRTFGGGTKLEIK	4.2 nM	0.021 nM
5E3KCDR2-A74D (antibody, IgG1, V domains shown, hu5E3 IgG1 vector mutant; also called 5E3-A74D-AFF) VH: QVQLQQSGPEVKKPGASVKISCKASGYIFTSYYIQWVIHAPGQGLEWIGWIYPGNVNTKYNEKFKGKATLTADKSSSTAYMELSSLTSEDTAVYFCARMDYEAHYWGQGTTVTVSS VL: DIQMTQSPSSLSASVGDRVTITCRASQEISGYLTWLQQKPEGAIKRLIYDASTLDSGVPKRFSGSRSGSDYSLTISSLQPEDFATYNCLQYANYPRTFGGGTKLEIK	3.06 nM	0.302 nM
5E3KCDR2-S80Y (antibody, IgG1, V domains shown, hu5E3 IgG1 vector mutant) VH: QVQLQQSGPEVKKPGASVKISCKASGYIFTSYYIQWVIHAPGQGLEWIGWIYPGNVNTKYNEKFKGKATLTADKSSSTAYMELSSLTSEDTAVYFCARMDYEAHYWGQGTTVTVSS VL: DIQMTQSPSSLSASVGDRVTITCRASQEISGYLTWLQQKPEGAIKRLIYAASTLDYGVPKRFSGSRSGSDYSLTISSLQPEDFATYNCLQYANYPRTFGGGTKLEIK	3.05 nM	0.0138 nM
5E3HCDR3-Y208F (antibody, IgG1, V domains shown, hu5E3 IgG1 vector mutant) VH: QVQLQQSGPEVKKPGASVKISCKASGYIFTSYYIQWVIHAPGQGLEWIGWIYPGNVNTKYNEKFKGKATLTADKSSSTAYMELSSLTSEDTAVYFCARMDFEAHYWGQGTTVTVSS VL: DIQMTQSPSSLSASVGDRVTITCRASQEISGYLTWLQQKPEGAIKRLIYAASTLDSGVPKRFSGSRSGSDYSLTISSLQPEDFATYNCLQYANYPRTFGGGTKLEIK	0.001 nM	21.5 nM
5E3KCDR2-G81D (antibody, IgG1, V domains shown, hu5E3 IgG1 vector mutant; also called 5E3-G81D-AFF) VH: QVQLQQSGPEVKKPGASVKISCKASGYIFTSYYIQWVIHAPGQGLEWIGWIYPGNVNTKYNEKFKGKATLTADKSSSTAYMELSSLTSEDTAVYFCARMDYEAHYWGQGTTVTVSS VL: DIQMTQSPSSLSASVGDRVTITCRASQEISGYLTWLQQKPEGAIKRLIYAASTLDSDVPKRFSGSRSGSDYSLTISSLQPEDFATYNCLQYANYPRTFGGGTKLEIK	2.33 nM	0.0192 nM
5E3KCDR3-N93D + 5E3HCDR3-Y212F (antibody, IgG1, V domains shown, double combination in hu5E3 IgG1) VH: QVQLQQSGPEVKKPGASVKISCKASGYIFTSYYIQWVIHAPGQGLEWIGWIYPGNVNTKYNEKFKGKATLTADKSSSTAYMELSSLTSEDTAVYFCARMDYEAHFWGQGTTVTVSS VL: DIQMTQSPSSLSASVGDRVTITCRASQEISGYLTWLQQKPEGAIKRLIYAASTLDSGVPKRFSGSRSGSDYSLTISSLQPEDFATYNCLQYADYPRTFGGGTKLEIK	2.41 nM	0.0194 nM
5E3HCDR2-K212D (antibody, IgG1, V domains shown, hu5E3 IgG1 vector mutant; also called 5E3-K212D-AFF) VH: QVQLQQSGPEVKKPGASVKISCKASGYIFTSYYIQWVIHAPGQGLEWIGWIYPGNVNTDYNEKFKGKATLTADKSSSTAYMELSSLTSEDTAVYFCARMDYEAHYWGQGTTVTVSS VL: DIQMTQSPSSLSASVGDRVTITCRASQEISGYLTWLQQKPEGAIKRLIYAASTLDSGVPKRFSGSRSGSDYSLTISSLQPEDFATYNCLQYANYPRTFGGGTKLEIK	2.36 nM	0.0171 nM
5E3HCDR3-E209Q (antibody, IgG1, V domains shown, hu5E3 IgG1 vector mutant) VH: QVQLQQSGPEVKKPGASVKISCKASGYIFTSYYIQWVIHAPGQGLEWIGWIYPGNVNTKYNEKFKGKATLTADKSSSTAYMELSSLTSEDTAVYFCARMDYQAHYWGQGTTVTVSS VL: DIQMTQSPSSLSASVGDRVTITCRASQEISGYLTWLQQKPEGAIKRLIYAASTLDSGVPKRFSGSRSGSDYSLTISSLQPEDFATYNCLQYANYPRTFGGGTKLEIK	6.05 nM	1.86 nM
5E3HCDR3-E255D (antibody, IgG1, V domains shown, hu5E3 IgG1 vector mutant; same change as 5E3HCDR3-E209D; also called 5E3-E255D-AFF) VH: QVQLQQSGPEVKKPGASVKISCKASGYIFTSYYIQWVIHAPGQGLEWIGWIYPGNVNTKYNEKFKGKATLTADKSSSTAYMELSSLTSEDTAVYFCARMDYDAHYWGQGTTVTVSS VL: DIQMTQSPSSLSASVGDRVTITCRASQEISGYLTWLQQKPEGAIKRLIYAASTLDSGVPKRFSGSRSGSDYSLTISSLQPEDFATYNCLQYANYPRTFGGGTKLEIK	2.57 nM	0.0333 nM
5E3KCDR3-L89I (antibody, IgG1, V domains shown, hu5E3 IgG1 vector mutant) VH: QVQLQQSGPEVKKPGASVKISCKASGYIFTSYYIQWVIHAPGQGLEWIGWIYPGNVNTKYNEKFKGKATLTADKSSSTAYMELSSLTSEDTAVYFCARMDYEAHYWGQGTTVTVSS VL: DIQMTQSPSSLSASVGDRVTITCRASQEISGYLTWLQQKPEGAIKRLIYAASTLDSGVPKRFSGSRSGSDYSLTISSLQPEDFATYNCIQYANYPRTFGGGTKLEIK	17.4 nM	1.62 nM
5E3KCDR3-N93D (antibody, IgG1, V domains shown, hu5E3 IgG1 vector mutant; same change as 5E3KCDR3-N117D) VH: QVQLQQSGPEVKKPGASVKISCKASGYIFTSYYIQWVIHAPGQGLEWIGWIYPGNVNTKYNEKFKGKATLTADKSSSTAYMELSSLTSEDTAVYFCARMDYEAHYWGQGTTVTVSS VL: DIQMTQSPSSLSASVGDRVTITCRASQEISGYLTWLQQKPEGAIKRLIYAASTLDSGVPKRFSGSRSGSDYSLTISSLQPEDFATYNCLQYADYPRTFGGGTKLEIK	9.9 nM	4.25 nM
5E3HCDR3-Y212F (antibody, IgG1, V domains shown, hu5E3 IgG1 vector mutant) VH: QVQLQQSGPEVKKPGASVKISCKASGYIFTSYYIQWVIHAPGQGLEWIGWIYPGNVNTKYNEKFKGKATLTADKSSSTAYMELSSLTSEDTAVYFCARMDYEAHFWGQGTTVTVSS VL: DIQMTQSPSSLSASVGDRVTITCRASQEISGYLTWLQQKPEGAIKRLIYAASTLDSGVPKRFSGSRSGSDYSLTISSLQPEDFATYNCLQYANYPRTFGGGTKLEIK	8.25 nM	1.58 nM
